From PMC3675498
Read-outs that look alike come from different tables or passages of the source.

Tests used:
Test in all cases: EMSA
[1] = biological target: T1, Cse4 octamer (Cse4/H4/H2A/H2B), splits to hemisome (UniProt P36012;P02309;P04911;P02293 1-229;1-103;1-132;1-131)
[2] = biological target: T2, H3 octamer (H3/H4/H2A/H2B), splits to hemisome (UniProt P61830;P02309;P04911;P02293 2-136;2-103;2-132;2-131)
[3] = biological target: Cse4-Δ90 octamer (UniProt P36012;P02309;P04911;P02293 91-229;2-103;2-132;2-131)
Sequence of Cse4-Δ90 octamer (P04911 2-132, stated change not applied, chain 3 of 2): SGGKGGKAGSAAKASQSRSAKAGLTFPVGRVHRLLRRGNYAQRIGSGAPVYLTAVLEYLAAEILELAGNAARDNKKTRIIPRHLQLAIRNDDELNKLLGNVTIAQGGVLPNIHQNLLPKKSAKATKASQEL
Sequence of Cse4-Δ90 octamer (P02293 2-131, stated change not applied, chain 4 of 2): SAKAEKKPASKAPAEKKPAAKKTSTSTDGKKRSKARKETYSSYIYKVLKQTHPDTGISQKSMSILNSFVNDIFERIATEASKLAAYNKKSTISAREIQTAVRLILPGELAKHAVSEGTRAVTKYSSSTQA

[4] = biological target: T1, Cse4 octamer (Cse4/H4/H2A/H2B), splits …; remark: listed apart in the source
[5] = biological target: T2, H3 octamer (H3/H4/H2A/H2B), splits to …; remark: listed apart in the source

T1 sequence (P36012 whole entry, chain 1 of 2): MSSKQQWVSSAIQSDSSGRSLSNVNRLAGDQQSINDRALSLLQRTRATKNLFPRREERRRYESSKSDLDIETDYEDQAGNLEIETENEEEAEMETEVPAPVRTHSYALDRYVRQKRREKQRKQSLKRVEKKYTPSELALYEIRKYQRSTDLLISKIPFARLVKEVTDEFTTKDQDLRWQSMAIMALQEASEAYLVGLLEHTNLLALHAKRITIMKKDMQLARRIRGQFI
T1 sequence (P02293 whole entry, chain 4 of 2): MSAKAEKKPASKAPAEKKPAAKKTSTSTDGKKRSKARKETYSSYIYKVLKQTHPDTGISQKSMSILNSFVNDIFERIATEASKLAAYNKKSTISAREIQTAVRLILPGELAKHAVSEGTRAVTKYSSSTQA
T2 sequence (P04911 2-132, chain 3 of 2): as the sequence (P04911 2-132, stated change not applied, chain 3 of 2) above
T2 sequence (P02293 2-131, chain 4 of 2): as the sequence (P02293 2-131, stated change not applied, chain 4 of 2) above

Row | Binder | binding result [1] | binding result [2] | binding result [3] | binding result [4] | binding result [5]
1 | α62 (dsDNA) DNA 1: CCTGCAGATACTACCAAAAGTGTATTTGGAAACTGCTCCATCAAAAGGCATGTTCAGCTGGA DNA 2: TCCAGCTGAACATGCCTTTTGATGGAGCAGTTTCCAAATACACTTTTGGTAGTATCTGCAGG | binds | binds | binds | – | –
2 | Cen4 CDEII 78 bp (dsDNA) DNA 1: CTTATAATCAACTTTTTTAAAAATTTAAAATACTTTTTTATTTTTTATTTTTAAACATAAATGAAATAATTTATTTAT DNA 2: ATAAATAAATTATTTCATTTATGTTTAAAAATAAAAAATAAAAAAGTATTTTAAATTTTTAAAAAAGTTGATTATAAG | – | – | – | binds | binds
